Consider one molecule from patent US20090068174A1, “THERAPEUTIC ALKALINE PROTEASE COMPOSITIONS AND USE IN FACILITATING THE TRANSPORT OF AGENTS ACROSS THE GASTROINTESTINAL MUCOSAL LINING” (Kansas University Medical Center Research Institute, Inc., priority 2007, published 2009).

For one series, the target named is T1, human IFN-γ (Homo sapiens, UniProt P01579).
T1 sequence (P01579 24-166): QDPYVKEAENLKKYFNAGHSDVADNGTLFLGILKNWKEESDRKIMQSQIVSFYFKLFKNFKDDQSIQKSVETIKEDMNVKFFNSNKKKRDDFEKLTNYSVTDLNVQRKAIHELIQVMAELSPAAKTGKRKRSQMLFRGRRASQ
The series is described as follows: Fc receptor-inducing activity of protease-treated human IFN-γ on U937 cells. Particulars: Table 7 summary. On the set-up: key: +: Indicates that the protease inactivated the cytokine; ^a: Cleavage of the cytokine occurred without inactivation. Type of series: cell-based. On the procedure: Effects of the purified A. oryzae proteases on the Fc receptor-inducing activity of human IFN-γ. Samples of the cytokine were first treated with the indicated Pseudomonas or fungal proteases: Elastase (∘); Preparation ([…]); Alkaline Protease (□); Deuterolysin (▪); and 26 kDa Protease (Δ). The treated samples were added to human promyelocytic U937 cells to induce expression of Fc receptors for IgG, which was detected by flow cytometry. The results are plotted either as a decrease in of mean channel fluorescence (A) or a decrease in % positive cells (B) plotted against increasing protease amounts.
Samples of the cytokine were first treated with the indicated Pseudomonas or fungal proteases: Elastase (∘); Preparation ([…]); Alkaline Protease (□); Deuterolysin (▪); and 26 kDa Protease (Δ). The treated samples were added to human promyelocytic U937 cells to induce expression of Fc receptors for IgG, which was detected by flow cytometry. The results are plotted either as a decrease in of mean channel fluorescence (A) or a decrease in % positive cells (B) plotted against increasing protease amounts.

Another series has as its target T2, TNF-α (Mus musculus, UniProt P06804).
T2 sequence (P06804 80-235 limits assumed): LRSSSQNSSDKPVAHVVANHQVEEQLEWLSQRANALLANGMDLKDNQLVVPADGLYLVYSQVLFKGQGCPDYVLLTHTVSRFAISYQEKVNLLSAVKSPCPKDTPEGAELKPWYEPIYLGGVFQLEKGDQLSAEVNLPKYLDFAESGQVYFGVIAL
The series is described as follows: Pretreatment of mice with protease before TNF-α challenge, activated caspase-3 in intestine. Type of series: in vivo. On the procedure: In this figure, various amounts of deutrolysin and alkaline protease were administered to mice 15 min prior to challenge with TNF-α. Intestinal tissues were again recovered 1 h later and the expression of activated caspase-3 was measured. […] (B) The ability of AP to provide protection against the apoptotic effects of TNF-α in vivo was limited in its duration. Thus, pretreatment of the mice for up to 30 min prior to TNF-α challenge prevented caspase-3 activation, whereas delaying cytokine challenge beyond 30 min diminished the protective effect of the protease.
A modification of this experiment was then performed by injecting various amounts of the proteases for 15 min prior to challenge with TNF-α (FIG. 22). Intestinal tissues were again recovered 1 h later and the expression of activated caspase-3 was measured. […]
Mice were injected i.p. with 5 ng of recombinant mouse TNF-α or protease-treated TNF-α, and 2 cm segments of their duodenums were collected 1 h later. […] The sections were first treated with rabbit antibody to activated (cleaved) mouse caspase-3, and bound antibody was detected using a Histostain-SP kit. For each mouse, tissues were scored by enumerating the number of sections in which less than 10%, 10-50%, or >50% of the intestinal villi expressed activated caspase-3. At least 48 sections were analyzed in this fashion from each mouse.

Another series has as its system TNBS-induced colitis. The series is described as follows: Induction of IBD in the hapten (TNBS)-induced SJL mouse model. Type of series: in vivo. To be noted: SJL mice, i.p. and oral treatment. On the procedure:
This example uses the TNBS model in the SJL mouse, a susceptible strain, comparing systemic versus oral administration of the alkaline protease as a prophylactic treatment of blocking the induction of gastrointestinal inflammation. Endpoint measurements can include histopathological evaluation and scoring of the lesions as known in the art.
SJL strain mice (Jackson Labs) can be lightly anesthetized, and a solution of 25-50 μg of TNBS in 100 μl 50% ethanol can be administered by enema. Initial studies can determine whether sufficient pathology is induced by a single injection or whether the two challenge protocol (day 0 and day 7) is preferable. Response parameters include: (a) body weight measured on days 0, 2, 4, 6, 8, and 10; (b) pathological scoring of lesions in the intestine on day 10 (0=no inflam; 1=low level leukocyte infiltration; 2=medium infiltration, vascular intensity with some wall thickening; 3=high level infiltration, vascular response and thickening; 4=transmural infiltration, loss of goblet cells); (c) and immunohistological staining for activated caspase-3 and TNF-α. Wall thickening can be measured, for instance, as described by Dohi et al. (1999) “Hapten-induced colitis is associated with colonic patch hypertrophy and T helper cell 2-type responses.” J Expt Med 189: 1169-79, which is incorporated by reference. […]

The conditions of series [1]: Table 1; cited from earlier work.

B1: Alkaline Protease: Aspergillus oryzae alkaline protease (oryzin), SEQ ID NO: 2, purified from the protease powder of Example 1 (protein, listed as Aspergillus oryzae)
chain: MQSIKRTLLLLGAILPAVLGAPVQETRRAAEKLPGKYIVTFKPGIDEAKIQEHTTWATNIHQRSLERRGATGGDLPVGIERNYKINKFAAYAGSFDDATIEEIRKNEDVAYVEEDQIYYLDGLTTQKSAPWGLGSISHKGQQSTDYIYDTSAGEGTYAYVVDSGVNVDHEEFEGRASKAYNAAGGQHVDSIGHGTHVSGTIAGKTYGIAKKASILSVKVFQGESSSTSVILDGFNWAANDIVSKKRTSKAAINMSLGGGYSKAFNDAVENAFEQGVLSVVAAGNENSDAGQTSPASAPDAITVAAIQKSNNRASFSNFGKVVDVFAPGQDILSAWIGSSSATNTISGTSMATPHIVGLSLYLAALENLDGPAAVTKRIKELATKDWKDVKGSPNLLAYNGNA
Regarding B1, in the series with human IFN-γ, the “Inactivation of Human IFN-γ” value was “+”. In addition, the “Pretreatment interval prior to TNF-α challenge that prevented caspase-3 activation” value with TNF-α was “up to 30 min”. In the series with TNF-α (protease 1-10 μg injected 15 min prior to TNF-α challenge, tissues 1 h later), the “Effect of protease pretreatment on action of TNF-α in vivo (activated caspase-3)” value was “blocked the action of TNF-α in vivo”. The “Weight loss and IBD induction by TNBS” value with TNBS-induced colitis is “can prevent and/or lessen weight loss and IBD induction by TNBS”. Moreover, in series [1], the “Heat stability (stable at)” value was 37 °C for 3 h and the pI is recorded as 6.53.
